Assay results reported in publication PMC2927781 (2010).
Where no end group is shown, it is not given here. Me2 = dimethyl

How the values were obtained:
[1] = target: T1, PHD_(Pygo2)–HD1_(BCL9) complex (human, UniProt Q9BRQ0 327-387; O00512 177-205); assay: ITC
T1 chain: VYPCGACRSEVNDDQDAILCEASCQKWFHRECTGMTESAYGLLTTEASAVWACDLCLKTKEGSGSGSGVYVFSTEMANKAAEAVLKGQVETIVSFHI

[2] = target: T2, PHD_(Pygo1)–HD1_(BCL9) complex (6×His-tagged, PHD linked to HD1) (human, UniProt Q9Y3Y4 340-400; O00512 177-205); assay: ITC
T2 chain: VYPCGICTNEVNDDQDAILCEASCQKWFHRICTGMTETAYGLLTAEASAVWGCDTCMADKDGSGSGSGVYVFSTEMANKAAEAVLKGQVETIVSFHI

Kd [1]: 2020 nM | Kd [2]: 3320 nM
Binder: ARTK(Me2)QTARKSTGGKA [15-mer H3K4me2 histone tail peptide (histone H3 tail dimethylated at lysine 4)]
